Results on 18 substances are retold here after patent US20050196403A1.

One may read the IC50 as the midpoint of a concentration-inhibition curve.

In assay [1] the target is HLA-A*0201 (Human). The assay can be described thus: competition vs 125I standard peptide, purified HLA.
Assay [2] concerns the target HLA-A*2401 (human). The assay can be described thus: competition with 125I probe peptide, purified HLA class I.
Assay [3] concerns the target HLA-A*2401 (Human).
Assay [4] addresses HLA-A*0201 (Human). The assay can be described thus: competition vs 125I probe, purified HLA.
The target in the next assay is HLA-A*0206 (Human). The assay can be described thus: competition vs 125I probe, purified HLA.
For a further assay, the target named is HLA-A*0203 (Human). The assay can be described thus: competition vs 125I probe, purified HLA.
The next assay deals with HLA-A*0202 (Human). The assay can be described thus: competition vs 125I probe, purified HLA.

For EALELKDA (peptide), the binding affinity ratio (ratio to standard peptide) with HLA-A*0201 (Human) [1] is -0.0002.
Still for that read-out and setting: for ELNEALEL (peptide) the value was -0.0002; for PLDGEYFT (peptide), -0.0002.
Turning to RFEMFREL (p53 position 337) (peptide), the binding affinity ratio (standard IC50 / test IC50) with HLA-A*2401 (human) [2] was -0.0004.
On the same count and under the same terms, for TFSDLWKL (p53 position 18) (peptide) the value was 0.0016.
With p53 peptide HMTEVVRR (position 168), the binding affinity ratio (IC50 of standard peptide/IC50 of test peptide) with HLA-A*0301 (Human) is 0.0046.
As for “p53 peptide RFEMFREL (position 337, 8 amino acids)”, the binding affinity ratio (IC50 of standard peptide/IC50 of test peptide) in the assay with HLA-A*2401 (Human) [3] is -0.0004.
Regarding “p53 peptide SYGFRLGF (position 106, 8 amino acids)”, in the assay with HLA-A*2401 (Human) [3], the binding affinity ratio (IC50 of standard peptide/IC50 of test peptide) was 0.028.
For “p53 peptide TFSDLWKL (position 18, 8 amino acids)”, the binding affinity ratio (IC50 of standard peptide/IC50 of test peptide) in the assay with HLA-A*2401 (Human) [3] amounted to 0.0016.
Still for that read-out and setting: next, “p53 peptide TYQGSYGF (position 102, 8 amino acids)”: 0.11; “p53 peptide … (position 102, 10 amino acids)”: 0.12.
With “p53 peptide … (position 106, 9 amino acids)”, the binding affinity ratio (IC50 of standard peptide/IC50 of test peptide) in the assay with HLA-A*2401 (Human) [3] stood at 0.02.
With “p53 peptide … (position 117, 10 amino acids)”, the binding affinity ratio (IC50 of standard peptide/IC50 of test peptide) in the assay with HLA-A*2401 (Human) [3] is 0.0001.
For the substance “p53 peptide … (position 125, 10 amino acids)”, in the assay with HLA-A*2401 (Human) [3], the binding affinity ratio (IC50 of standard peptide/IC50 of test peptide) stood at 5.1.
Consider p53.69 AAPPVAPA (peptide), for which the IC50 in the assay with HLA-A*0201 (Human) [4] is 5000 nM.
Consider p53.129B7V9 ALNKMFBQV (peptide), for which the IC50 with HLA-A*0206 (Human) stood at 49 nM; with HLA-A*0203 (Human), 23 nM.
As to p53.135B1B7 BQLAKTBPV (peptide), the IC50 came out at 67 nM with HLA-A*0206 (Human), 71 nM with HLA-A*0202 (Human) and 15 nM with HLA-A*0203 (Human).
Take p53.135B1L2B7 BLLAKTBPV (peptide): the IC50 was 64 nM in the assay with HLA-A*0206 (Human), 46 nM in the assay with HLA-A*0201 (Human) [4] and 7.7 nM with HLA-A*0203 (Human).
